Measurements taken from article PMC6042154 (Proceedings of the National Academy of Sciences of the …, 2018).

Molecular target: the molecule itself
Experiment: native MS

B1: outer membrane porin F (OmpF) (natural protein)
chain: AEIYNKDGNKVDLYGKAVGLHYFSKGNGENSYGGNGDMTYARLGFKGETQINSDLTGYGQWEYNFQGNNSEGADAQTGNKTRLAFAGLKYADVGSFDYGRNYGVVYDALGYTDMLPEFGGDTAYSDDFFVGRVGGVATYRNSNFFGLVDGLNFAVQYLGKNERDTARRSNGDGVGGSISYEYEGFGIVGAYGAADRTNLQEAQPLGNGKKAEQWATGLKYDANNIYLAANYGETRNATPITNKFTNTSGFANKTQDVLLVAQYQFDFGLRPSIAYTKSKAKDVEGIGDVDLVNYFEVGATYYFNKNMSTYVDYIINQIDSDNKLGVGSDDTVAVGIVYQF
stoichiometry N: 3
